Earlier results on two substances are cited in article PMC3905167.

What all share (experiment): given as Ka
The target of one series is FcγRI (Homo sapiens) (UniProt P12314).
The target of series [1] is FcγRIIIa (V158) (Homo sapiens) (UniProt P08637).
In series [2] the target is FcγRIIa (H131) (Homo sapiens) (UniProt P12318).
The target of series [3] is FcγRIIIa (F158) (Homo sapiens) (UniProt P08637).
Series [4] addresses FcγRIIa (R131) (Homo sapiens) (UniProt P12318).

Sequence of IgG4 (P01861 whole entry): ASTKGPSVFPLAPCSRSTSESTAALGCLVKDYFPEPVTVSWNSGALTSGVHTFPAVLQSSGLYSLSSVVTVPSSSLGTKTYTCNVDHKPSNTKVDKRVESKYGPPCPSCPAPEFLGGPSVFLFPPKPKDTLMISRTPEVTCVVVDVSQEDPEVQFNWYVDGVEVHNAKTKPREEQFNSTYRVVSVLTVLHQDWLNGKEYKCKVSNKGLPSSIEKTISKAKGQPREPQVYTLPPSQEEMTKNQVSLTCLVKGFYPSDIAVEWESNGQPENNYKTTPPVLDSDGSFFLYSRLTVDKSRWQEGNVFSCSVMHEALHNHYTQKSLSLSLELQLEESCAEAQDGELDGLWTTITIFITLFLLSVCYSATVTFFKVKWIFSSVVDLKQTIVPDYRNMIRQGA
Sequence of FcγRIIa (R131) (Homo sapiens) (P12318 34-317): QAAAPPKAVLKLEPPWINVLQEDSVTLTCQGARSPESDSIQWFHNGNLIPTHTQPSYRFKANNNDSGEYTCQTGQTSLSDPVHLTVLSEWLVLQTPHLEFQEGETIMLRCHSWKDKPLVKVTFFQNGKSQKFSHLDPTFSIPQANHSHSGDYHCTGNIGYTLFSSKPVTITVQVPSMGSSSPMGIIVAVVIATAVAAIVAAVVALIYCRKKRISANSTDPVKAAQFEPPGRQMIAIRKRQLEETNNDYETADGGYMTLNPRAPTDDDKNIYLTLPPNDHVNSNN
Sequence of FcγRIIa (H131) (Homo sapiens) (P12318 34-317): as above
Sequence of FcγRIIIa (V158) (Homo sapiens) (P08637 17-254): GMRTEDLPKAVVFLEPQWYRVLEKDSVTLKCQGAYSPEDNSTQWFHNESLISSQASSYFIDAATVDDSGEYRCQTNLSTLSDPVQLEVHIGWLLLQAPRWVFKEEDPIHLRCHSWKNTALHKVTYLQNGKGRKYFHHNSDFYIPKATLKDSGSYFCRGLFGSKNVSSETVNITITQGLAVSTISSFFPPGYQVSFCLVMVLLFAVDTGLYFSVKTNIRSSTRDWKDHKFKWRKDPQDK
Sequence of FcγRIIIa (F158) (Homo sapiens) (P08637 17-254): as above
Sequence of FcγRI (Homo sapiens) (P12314 16-374): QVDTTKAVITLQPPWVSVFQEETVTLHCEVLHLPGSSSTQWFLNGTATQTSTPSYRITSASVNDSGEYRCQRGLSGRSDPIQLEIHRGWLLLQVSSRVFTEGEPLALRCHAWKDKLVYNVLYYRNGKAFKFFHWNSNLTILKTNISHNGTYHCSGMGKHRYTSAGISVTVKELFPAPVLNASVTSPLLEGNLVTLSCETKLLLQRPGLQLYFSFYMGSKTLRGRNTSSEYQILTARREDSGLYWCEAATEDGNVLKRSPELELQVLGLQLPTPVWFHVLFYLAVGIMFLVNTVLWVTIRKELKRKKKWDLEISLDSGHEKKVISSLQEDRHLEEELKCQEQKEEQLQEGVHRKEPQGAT

As a reminder, the Kd is the concentration at which binding is half-saturated. Turning to IgG1 (from UniProt P01857), the Kd in the series with FcγRI (Homo sapiens) was 15.4 nM; in series [1] it was 500 nM; in series [2] it was 192 nM; in series [3] it was 855 nM; in series [4], 286 nM.

As for IgG4 (from UniProt P01861), the Kd in the series with FcγRI (Homo sapiens) was 29.4 nM; in series [1], 4000 nM; in series [2], 5880 nM; in series [3], 5000 nM; in series [4] it was 4760 nM.
